# Measured values reported in patent US20240043515A1 (Chugai, published 2024).
# Where a chain is given by its changes, count along the chain named. In names and notes the source's numbering stands.
# T1: hFcγRIIaH on Jurkat effector cells (human, UniProt P12318 34-317)
# T1 sequence (looked up): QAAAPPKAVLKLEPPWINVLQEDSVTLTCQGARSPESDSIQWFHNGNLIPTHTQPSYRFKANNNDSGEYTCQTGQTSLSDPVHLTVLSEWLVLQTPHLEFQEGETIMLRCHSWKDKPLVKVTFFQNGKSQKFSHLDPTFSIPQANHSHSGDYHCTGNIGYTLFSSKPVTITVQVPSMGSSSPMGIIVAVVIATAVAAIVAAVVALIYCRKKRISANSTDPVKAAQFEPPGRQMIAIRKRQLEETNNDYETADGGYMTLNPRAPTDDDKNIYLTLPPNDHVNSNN
# T2: human FcγRIIa H extracellular domain (human, UniProt P12318 34-217)
# T2 construct: extracellular domain; also called hFcγR IIa H; FcγRIIa allotype H131
# T2 sequence (looked up): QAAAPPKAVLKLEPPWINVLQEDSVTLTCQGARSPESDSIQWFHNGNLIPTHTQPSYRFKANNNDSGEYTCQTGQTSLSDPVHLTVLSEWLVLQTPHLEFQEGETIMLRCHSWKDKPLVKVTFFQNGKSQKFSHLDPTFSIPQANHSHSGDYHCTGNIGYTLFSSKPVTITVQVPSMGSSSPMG
# T3: human FcγRIIa R extracellular domain (human, UniProt P12318 34-217)
# T3 construct: extracellular domain; also called hFcγR IIa R; FcγRIIa allotype R131
# T3 sequence (looked up): T2 sequence (looked up) with H134R
# T4: human FcγRIIb extracellular domain (human, UniProt P31994 43-217)
# T4 construct: extracellular domain; also called hFcγR IIb
# T4 sequence (looked up): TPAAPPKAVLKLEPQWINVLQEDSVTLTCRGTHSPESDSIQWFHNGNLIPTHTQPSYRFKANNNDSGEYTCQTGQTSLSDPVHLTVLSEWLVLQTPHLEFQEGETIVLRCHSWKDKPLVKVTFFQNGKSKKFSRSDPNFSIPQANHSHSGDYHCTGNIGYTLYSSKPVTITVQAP
# B1: EGL-ART3 (H240-Kn443/L73-k0//H240-H1408/L73-k0) (antibody, human IgG1, kappa)
# heavy 1: QDQLVQSGAEVKKPGASVKVSCKASGFNIKDTYIQWVRQAPGQGLEWMGRIDPLRKQTKYREKFEGRVTITADTSTNTAYMELSSLRSEDTAVYYCVRSGREFDYWGQGTLVTVSSASTKGPSVFPLAPSSKSTSGGTAALGCLVKDYFPEPVTVSWNSGALTSGVHTFPAVLQSSGLYSLSSVVTVPSSSLGTQTYICNVNHKPSNTKVDKKVEPKSCDKTHTCPPCPAPEFQWGPMVFLFPPKPKDTLMISRTPEVTCVVVDVSDEEPEVKFNWYVDGVEVHNAKTKPREEQYNATYRVVSVLTVLHQDWLNGKEYKCKVSNDALPAPIEKTISKAKGQPREPQVCTLPPSRDELTKNQVSLWCLVKGFYPSDIAVEWESNGQPENNYKTTPPVLDSDGSFFLYSKLTVDKSRWQQGNVFSCSVMHEALHNHYTQKSLSLSP
# heavy 2: QDQLVQSGAEVKKPGASVKVSCKASGFNIKDTYIQWVRQAPGQGLEWMGRIDPLRKQTKYREKFEGRVTITADTSTNTAYMELSSLRSEDTAVYYCVRSGREFDYWGQGTLVTVSSASTKGPSVFPLAPSSKSTSGGTAALGCLVKDYFPEPVTVSWNSGALTSGVHTFPAVLQSSGLYSLSSVVTVPSSSLGTQTYICNVNHKPSNTKVDKKVEPKSCDKTHTCPPCPAPELLAGPSVFLFPPKPKDTLMISRTPEVTCVVVDVSHEEPEVKFNWYVDGVEVHNAKTKPREEQYNATYRVVSVLTVLHQDWLNGKEYKCKVSNDALPAPIEETISKAKGQPREPQVYTLPPSRCELTKNQVSLSCAVKGFYPSDIAVEWESNGQPENNYKTTPPVLDSDGSFFLVSKLTVDKSRWQQGNVFSCSVMHEALHNHYTQKSLSLSP
# light: DIQMTQSPSSLSASVGDRVTITCRASQDIHKYIAWYQQKPGQAPRLLIQYTSTLQPGVPSRFSGSGSGTDYTFTISSLQPEDIATYYCLQYEQLRTFGGGTKVEIKRTVAAPSVFIFPPSDEQLKSGTASVVCLLNNFYPREAKVQWKVDNALQSGNSQESVTEQDSKDSTYSLSSTLTLSKADYEKHKVYACEVTHQGLSSPVTKSFNRGEC
# notes: Kn443: L234F/L235Q/G236W/S239M/H268D/D270E/S298A/K326D + Y349C/T366W; H1408: G236A/D270E/S298A/K326D/K334E + D356C/T366S/L368A/Y407V
# B2: EGL-ART4 (H240-Kn456/L73-k0//H240-H1446/L73-k0) (antibody, human IgG1, kappa)
# heavy 1: B1 heavy 1 with T249V, T306P, D325K, A329M, I331E
# heavy 2: B1 heavy 2 with T249V, T306P, A329M, I331E
# light: B1 light
# notes: Kn456: L234F/L235Q/G236W/S239M/T250V/H268D/D270E/S298A/T307P/A330M/I332E + Y349C/T366W; H1446: G236A/T250V/D270E/S298A/T307P/K326D/A330M/I332E/K334E + D356C/T366S/L368A/Y407V
# B3: EGL-ART12 (H240-Kn498/L73-k0//H240-H1518/L73-k0) (antibody, human IgG1, kappa)
# heavy 1: B1 heavy 1 with T249V, T306P, D325K, A329M
# heavy 2: B1 heavy 2 with A235G, T249V, T306P, A329M
# light: B1 light
# notes: Kn498: L234F/L235Q/G236W/S239M/T250V/H268D/D270E/S298A/T307P/A330M + Y349C/T366W; H1518: T250V/D270E/S298A/T307P/K326D/A330M/K334E + D356C/T366S/L368A/Y407V
# B4: EGL-ART10 (H240-Kn494/L73-k0//H240-H1514/L73-k0) (antibody, human IgG1, kappa)
# heavy 1: B1 heavy 1 with T249V, T306P, D325K, I331E
# heavy 2: B1 heavy 2 with A235G, T249V, T306P, I331E
# light: B1 light
# notes: Kn494: L234F/L235Q/G236W/S239M/T250V/H268D/D270E/S298A/T307P/I332E + Y349C/T366W; H1514: T250V/D270E/S298A/T307P/K326D/I332E/K334E + D356C/T366S/L368A/Y407V
# B5: EGL-ART5 (H240-Kn462/L73-k0//H240-H1441/L73-k0) (antibody, human IgG1, kappa)
# heavy 1: B1 heavy 1 with T249V, T306P
# heavy 2: B1 heavy 2 with T249V, T306P
# light: B1 light
# notes: Kn462: L234F/L235Q/G236W/S239M/T250V/H268D/D270E/S298A/T307P/K326D + Y349C/T366W; H1441: G236A/T250V/D270E/S298A/T307P/K326D/K334E + D356C/T366S/L368A/Y407V
# B6: EGL-ART6 (H240-Kn462/L73-k0//H240-H1445/L73-k0) (antibody, human IgG1, kappa)
# heavy 1: B1 heavy 1 with T249V, T306P
# heavy 2: B1 heavy 2 with T249V, T306P, A329K, I331D
# light: B1 light
# notes: H1445: G236A/T250V/D270E/S298A/T307P/K326D/A330K/I332D/K334E + D356C/T366S/L368A/Y407V
# Molecular target: hFcγRIIIaV on Jurkat effector cells (human, UniProt P08637 17-254)
# Sequence (P08637 17-254, form in doubt): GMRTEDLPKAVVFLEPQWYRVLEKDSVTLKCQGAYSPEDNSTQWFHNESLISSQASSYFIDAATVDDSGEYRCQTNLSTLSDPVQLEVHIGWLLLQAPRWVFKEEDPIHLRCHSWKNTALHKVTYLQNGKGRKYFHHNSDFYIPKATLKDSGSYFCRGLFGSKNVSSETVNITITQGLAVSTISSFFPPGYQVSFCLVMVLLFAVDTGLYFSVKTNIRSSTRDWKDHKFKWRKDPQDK
# Assay: cell-based or functional assay
row,Binder,"EC50 of reporter gene induction (ADCC Reporter Bioassay, Hepa1-6/hEREG target cells) [ng/mL]"
1,B1,1.53
2,B2,0.789
3,B3,0.304
4,B4,0.107
5,B5,1.67
6,B6,1.5

# Molecular target: T1, hFcγRIIaH on Jurkat effector cells
# Assay: cell-based or functional assay
row,Binder,"EC50 of reporter gene induction (ADCP Reporter Bioassay, Hepa1-6/hEREG target cells) [ng/mL]"
1,B1,15.8
2,B2,43.2
3,B3,85
4,B4,41.9
5,B5,24.5
6,B6,19.2

# Molecular target: T5, human FcγRIa extracellular domain (human, UniProt P12314 16-292)
# T5 construct: extracellular domain; also called hFcγR Ia
# T5 sequence (P12314 16-292): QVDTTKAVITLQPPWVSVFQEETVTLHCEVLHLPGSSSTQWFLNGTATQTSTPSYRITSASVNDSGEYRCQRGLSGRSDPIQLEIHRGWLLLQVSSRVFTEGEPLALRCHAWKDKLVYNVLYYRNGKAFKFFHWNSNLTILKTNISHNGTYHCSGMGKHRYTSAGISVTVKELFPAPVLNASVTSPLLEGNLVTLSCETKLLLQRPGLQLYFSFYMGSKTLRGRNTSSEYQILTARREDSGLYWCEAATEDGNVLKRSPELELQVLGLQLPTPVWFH
# Assay: SPR; KD of G1d divided by KD of this antibody
row,Binder,Relative value to KD between G1d and hFcgRs [times]
1,B1,0.5
2,B2,2.9
3,B3,3.4
4,B4,3.4
5,B5,0.5
6,B6,1.2

# Molecular target: T2, human FcγRIIa H extracellular domain
# Assay: SPR; KD of G1d divided by KD of this antibody
row,Binder,Relative value to KD between G1d and hFcgRs [times]
1,B1,32.1
2,B2,6.3
3,B3,3.1
4,B4,2.7
5,B5,33.9
6,B6,118

# Molecular target: T3, human FcγRIIa R extracellular domain
# Assay: SPR; KD of G1d divided by KD of this antibody
row,Binder,Relative value to KD between G1d and hFcgRs [times]
1,B1,13.7
2,B2,3.2
3,B3,1
4,B4,1.5
5,B5,10.4
6,B6,24.1

# Molecular target: T4, human FcγRIIb extracellular domain
# Assay: SPR; KD of G1d divided by KD of this antibody
row,Binder,Relative value to KD between G1d and hFcgRs [times]
1,B1,1.6
2,B2,0.9
3,B3,0.5
4,B4,1.4
5,B5,1.3
6,B6,3.4

# Molecular target: T6, human FcγRIIIa F extracellular domain (human, UniProt P08637 17-208)
# T6 construct: extracellular domain; also called hFcγR IIIa F; FcγRIIIa allotype F158
# T6 sequence (P08637 17-208): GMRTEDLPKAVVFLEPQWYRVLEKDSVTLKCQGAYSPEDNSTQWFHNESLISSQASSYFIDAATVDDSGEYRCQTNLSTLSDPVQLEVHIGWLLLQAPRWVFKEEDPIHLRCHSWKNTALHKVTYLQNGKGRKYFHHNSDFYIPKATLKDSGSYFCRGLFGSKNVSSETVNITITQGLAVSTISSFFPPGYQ
# Assay: SPR; KD of G1d divided by KD of this antibody
row,Binder,Relative value to KD between G1d and hFcgRs [times]
1,B1,185
2,B2,2520
3,B3,578
4,B4,1290
5,B5,148
6,B6,987

# Molecular target: T7, human FcγRIIIa V extracellular domain (human, UniProt P08637 17-208)
# T7 construct: extracellular domain; also called hFcγR IIIa V; FcγRIIIa allotype V158
# T7 sequence (P08637 17-208 F176V): as the sequence (P08637 17-208) above, with F160V counted along it
# Assay: SPR; KD of G1d divided by KD of this antibody
row,Binder,Relative value to KD between G1d and hFcgRs [times]
1,B1,114
2,B2,462
3,B3,158
4,B4,566
5,B5,92.9
6,B6,322

# Molecular target: T2, human FcγRIIa H extracellular domain
# Assay: SPR; KD for hFcγRIIb divided by KD for this FcγR
row,Binder,A/I ratio (KD for FcγRIIb divided by KD for each FcγR) [ratio]
1,B1,181
2,B2,65.2
3,B3,60.3
4,B4,17.3
5,B5,240
6,B6,307

# Molecular target: T3, human FcγRIIa R extracellular domain
# Assay: SPR; KD for hFcγRIIb divided by KD for this FcγR
row,Binder,A/I ratio (KD for FcγRIIb divided by KD for each FcγR) [ratio]
1,B1,52.4
2,B2,22.5
3,B3,12.8
4,B4,6.6
5,B5,49.9
6,B6,42.4

# Molecular target: T6, human FcγRIIIa F extracellular domain
# Assay: SPR; KD for hFcγRIIb divided by KD for this FcγR
row,Binder,A/I ratio (KD for FcγRIIb divided by KD for each FcγR) [ratio]
1,B1,396
2,B2,9940
3,B3,4310
4,B4,3160
5,B5,399
6,B6,976

# Molecular target: T7, human FcγRIIIa V extracellular domain
# Assay: SPR; KD for hFcγRIIb divided by KD for this FcγR
row,Binder,A/I ratio (KD for FcγRIIb divided by KD for each FcγR) [ratio]
1,B1,2000
2,B2,15000
3,B3,9720
4,B4,11400
5,B5,2060
6,B6,2630
